Laboratory results published in US20250034271A1.

Tests used:
[1] = target: mouse CD40 (mCD40) on transfected CHO cells (mouse) (UniProt P27512); assay: flow cytometry, CHO-mCD40 cells, negative control, anti-mIgG Fc-FITC; x: Anti-mouse-IgG-Fc-FITC, y: SSC-H
[2] = target: monkey (rhesus macaque) CD40 (rmCD40) on transfected CHO cells (rhesus macaque); assay: flow cytometry, CHO-rmCD40 cells, negative control, anti-mIgG Fc-FITC; x: Anti-mouse-IgG-Fc-FITC, y: SSC-H
[3] = target: chimeric (mouse and human) CD40 (chiCD40) on transfected CHO cells (chimeric (mouse and human)); assay: flow cytometry, CHO-chiCD40 cells, negative control, anti-mIgG Fc-FITC; x: Anti-mouse-IgG-Fc-FITC, y: SSC-H
chimeric (mouse and human) CD40 (chiCD40) on transfected CHO cells (chimeric (mouse and human)), sequence (chain, as listed by the source mutant limits assumed): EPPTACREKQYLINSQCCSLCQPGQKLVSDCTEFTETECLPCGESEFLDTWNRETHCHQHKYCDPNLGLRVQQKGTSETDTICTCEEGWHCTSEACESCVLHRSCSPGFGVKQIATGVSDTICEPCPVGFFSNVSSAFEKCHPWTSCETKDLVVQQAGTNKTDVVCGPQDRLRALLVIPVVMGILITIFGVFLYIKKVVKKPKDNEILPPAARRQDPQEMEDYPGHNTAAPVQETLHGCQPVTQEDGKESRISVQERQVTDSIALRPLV

monkey (rhesus macaque) CD40 (rmCD40) on transfected CHO cells (rhesus macaque), sequence (P25942 other isoform, or with tags, fused parts or gaps limits assumed): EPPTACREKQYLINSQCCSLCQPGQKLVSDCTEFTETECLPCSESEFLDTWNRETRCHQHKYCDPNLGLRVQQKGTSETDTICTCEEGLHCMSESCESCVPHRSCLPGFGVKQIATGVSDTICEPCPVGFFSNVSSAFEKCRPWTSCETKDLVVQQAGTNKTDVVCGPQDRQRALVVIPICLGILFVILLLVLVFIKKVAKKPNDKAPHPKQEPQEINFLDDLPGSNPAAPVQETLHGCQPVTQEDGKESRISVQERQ
mouse CD40 (mCD40) on transfected CHO cells (mouse), sequence (P27512 20-289 limits assumed): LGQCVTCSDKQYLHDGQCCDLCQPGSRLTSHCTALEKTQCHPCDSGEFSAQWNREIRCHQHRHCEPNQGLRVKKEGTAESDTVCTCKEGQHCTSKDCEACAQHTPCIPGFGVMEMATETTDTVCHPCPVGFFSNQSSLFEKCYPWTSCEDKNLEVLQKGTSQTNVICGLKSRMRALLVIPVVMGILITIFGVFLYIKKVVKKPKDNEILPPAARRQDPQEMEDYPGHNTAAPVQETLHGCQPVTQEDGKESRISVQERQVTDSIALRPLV

% cells in the Anti-mouse-IgG-Fc-FITC positive gate [1]: 1.01%
% cells in the Anti-mouse-IgG-Fc-FITC positive gate [2]: 1.19%
% cells in the Anti-mouse-IgG-Fc-FITC positive gate [3]: 1.19%
Substance: NC
